To fix the notation:
B1: OR4K15 (parent)
chain: GUUAACGGUCAUAGGCCAUGGAAACUAGGAGCACCAUUUCGCUGCCAGUGAAGAAAUGAACAAAGAAAAUCUGGGCCAGGCAGGCAUCAAAAGAAAUAGUCUUGCGCUCAACCAGAAAGUCUGUAAUCAUUUUAAGGGUA

The data set covers variants of B1. In words: self-cleavage, relative activity (ratio to wild type); higher = more cleavage; in vitro, sequencing; the parent is a self-cleaving ribozyme.
As to U19C C46A, the self-cleavage was found to be 1.64.
For A47U G138A the value was 1.61; for A59G A68U, 1.91; for A33C U108C, 0.01.
For A60G A111G the value was 0.03.
Take U87C U127C: the self-cleavage stood at 0.64.
In the case of G8A A91G, the self-cleavage was 1.17.
On to U122C A140C, for which the self-cleavage is 1.25.
For U124C A129U the value was 0.94.
For the variant A51G U122C, the self-cleavage was 0.6.
For A30G C61U the value was 0.84; for U139G A140U, 1.51; for A69G U131G, 0.46.
For U39C A60G the value was 1.42; for G7U A18G, 1.68; for U49A A69G, 1.49.
A78G A110C: the self-cleavage is 0.3.
For U57C U131C the value was 0.94; for G29A A33G, 0.88; for A24C U139C, 2.1.
Consider A22G A68C, for which the self-cleavage is 0.64.
For A68G A134G the value was 1.5.
Consider C85U A90C, for which the self-cleavage turned out to be 1.2.
The result for C34U U103G reads 0.04; that for C109A U122C, 0.28; that for A55G A96G, 0.83.
For the variant U100C A116C, the self-cleavage came out at 0.97.
Regarding A18U A92G, the self-cleavage was determined as 1.04.
As for C85G A126G, the self-cleavage came to 0.2.
For U49A G137A the value was 1.92; for A13U A23G, 1.43.
Turning to C32U A47U, the self-cleavage worked out at 0.9.
Regarding C16U U103C, the self-cleavage was 0.77.
The result for A118C reads 0.97; that for A11G G119A, 2.11.
Regarding A11G A82G, the self-cleavage was determined as 0.55.
The result for G79A A86G reads 0.22.
For A51G A92U the value was 2.09.
The result for A27G A66C reads 1.24; that for U38C U70C, 1.05; that for G20C U124A, 0.67.
In the case of A126G A129U, the self-cleavage came out at 0.83.
The result for U38C A129G reads 1.31.
For U43G A140G the value was 2.62; for A52U U57C, 1.45.
For U57C G137U, the self-cleavage stood at 2.18.
On to A22G A92U, for which the self-cleavage was found to be 1.94.
With G79A U87A, the self-cleavage is 0.11.
The result for A66G U122A reads 1.63; that for A18G A55G, 1.07; that for G80A A114G, 0.05.
For A55G G138A the value was 1.54; for A94G C105U, 0.38; for G50U G53A, 2.2.
The result for U43C A94G reads 1.78; that for A62G A129U, 0.89; that for A66G C77A, 0.91.
For the variant A5G A78C, the self-cleavage turned out to be 0.62.
The result for A55G G74A reads 0.31; that for A11U U108C, 0.01; that for G28A A55G, 1.7.
The result for A22G A129C reads 1.08; that for G58A A140G, 1.85.
A11G U100C: the self-cleavage stood at 1.06.
For A63G U102G the value was 0.54; for G8A A33U, 2.08.
For A18U A52G the value was 1.7.
For C40U A62G the value was 1.2; for C17U A94G, 1.32; for A24G A89G, 0.78.
As for G7A A24G, the self-cleavage amounted to 1.4.
In the case of U37C A66U, the self-cleavage came to 1.7.
For A68U A96G the value was 1.98; for A54G C71U, 0.58.
Turning to A52G A91U, the self-cleavage was determined as 2.17.
For U122A U131G the value was 0.73.
Turning to U37A A82G, the self-cleavage was 0.61.
For A22G A36G the value was 1.4.
For U102C A114G the value was 0.68; for U72G U132A, 0.44; for A5C U122C, 0.99.
The result for U39C G41U reads 1.16.
A51U A98U: the self-cleavage is 2.9.
The result for G50U G79A reads 0.11.
In the case of A18U A33C, the self-cleavage came to 1.61.
The result for U100C U102C reads 1.62; that for U19C G75U, 0.08; that for U70C G119A, 1.49.
For U103A A116G the value was 0.14; for G20U A67G, 1.24; for A23C A59U, 1.77.
The result for A69G C112U reads 0.01; that for U12A U37C, 1.96; that for U57C A90U, 1.51.
For the variant A59G C109G, the self-cleavage was found to be 0.03.
For A24U U133A the value was 1.54; for C46U A51G, 1.42; for A4G U122C, 0.78.
Consider C101A, for which the self-cleavage came out at 0.21.
Take U9A U43G: the self-cleavage worked out at 1.18.
The result for A67G A117U reads 0.32.
In the case of A33U A135U, the self-cleavage turned out to be 1.79.
With U9A A95G, the self-cleavage came to 1.18.
Take U43A C128A: the self-cleavage stood at 0.8.
For A95G G138C the value was 2.62.
The result for G48A A91U reads 1.71.
For U132C U139C the value was 1.81; for A55C U124C, 0.95.
For the variant G80A, the self-cleavage came out at 0.24.
The result for G15A A23G reads 0.9; that for C121A A126G, 1.78; that for U57A A117G, 1.69.
For G58U U108C the value was 0.02; for A55G A59G, 1.17.
For A4G A51G the value was 1.01.
In the case of A4G A23G, the self-cleavage was found to be 1.09.
Take A47G G104A: the self-cleavage came to 0.05.
For U57A A140G the value was 1.3.
For A22C U102C the value was 2.42.
For A24C A92G the value was 1.9.
For the variant C42A A52G, the self-cleavage is 1.41.
As to U70C U132A, the self-cleavage is 0.38.
For A5U A129G the value was 0.79; for U19C C32G, 1.51; for A82G U97C, 0.5.
The result for G119A U132C reads 2.46; that for A23C U70A, 1.48.
For C46U A89U the value was 1.71; for A47U A91U, 0.51; for C16U A111G, 0.05.
On to G106A G136U, for which the self-cleavage was 0.04.
As for A22U A110G, the self-cleavage amounted to 0.12.
For A68U U102C the value was 2.04; for G84C U122C, 0.23; for A33G A92G, 1.01.
The result for U2A A125U reads 2.08; that for U97C A117G, 2.06; that for C35A A51U, 1.93.
For A95G C113U the value was 0.15.
For A111G A118G, the self-cleavage was 0.01.
Take C34U A92G: the self-cleavage was determined as 1.04.
Regarding U120C C128U, the self-cleavage is 0.84.
The result for A18U A54G reads 1.28; that for G53A U100C, 2.52; that for U70A U127A, 2.27.
With A54U A67G, the self-cleavage is 0.82.
Regarding G65U A111G, the self-cleavage is 0.06.
For U102A U127C the value was 0.74.
The result for A30G A64C reads 1.38.
As for A36C U100C, the self-cleavage was found to be 1.85.
In the case of A4U U19C, the self-cleavage turned out to be 0.7.
The result for U43A U57A reads 1.79; that for U37C U49C, 1.71; that for U49C U100A, 0.63.
On to A11G A56G, for which the self-cleavage is 0.35.
The result for U19C C34U reads 0.91; that for A22G A66C, 1.49.
For C16U A22U the value was 1.32.
As for A63G G99A, the self-cleavage was determined as 0.76.
The result for A116G U127C reads 0.31; that for A13G U70G, 1.1; that for A36U A55U, 0.98.
The result for A47U U108A reads 0.01; that for A47G A63G, 0.44; that for U9C A117G, 1.91.
A54C U120C: the self-cleavage was found to be 0.93.
As to A23G C45U, the self-cleavage amounted to 1.23.
